Consider 22 molecules from US20240400696A1.

Residue numbers refer to the chain shown, from its start.

The assay concerns the target CD3. Nature of the assay: Octet, crude lysate. (In BLI a coated tip is dipped into the sample, and binding shifts an interference pattern.)

CD3, sequence (P07766 23-126): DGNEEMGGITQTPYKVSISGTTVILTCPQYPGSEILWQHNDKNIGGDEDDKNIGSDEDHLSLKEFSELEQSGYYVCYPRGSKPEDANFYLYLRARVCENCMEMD

B1: AC3436 (bispecific antibody, V domains shown)
VH: EVQLLESGGGIVQPGGSLKLSCAASGFTFNTYAMNWVRQAPGKGLEWVARIRSKYNNYATYYADSVKDRFTISRDDSKNTVYLQMNNLKTEDTAVYYCVRHENFGNSYVSWFAHWGQGTLVTVSS
VL: ELVVTQEPSLTVSPGGTVTLTCRSSNGAVTSSNYANWVQQKPGQAPRGLIGGTNKRAPGTPARFSGSSLGGKAALTLSGVQPEDEAVYYCALWYPNLWVFGGGTKLTVL
As usually defined, the Kd is a measure of binding affinity in units of concentration. Low values mean higher affinity, high ones lower affinity. For the molecule B1, the equilibrium dissociation constant (Kd) is 7.3 nM.

B2: AC3389 (bispecific antibody, V domains shown)
VH: B1 VH with R52Q
VL: B1 VL with S68L
Turning to B2, the equilibrium dissociation constant (Kd) amounted to 434 nM.

B3: AC3400 (bispecific antibody, V domains shown)
VH: B1 VH with Y55G
VL: B1 VL with S68L
Turning to B3, the equilibrium dissociation constant (Kd) amounted to 20.1 nM.

B4: AC3437 (bispecific antibody, V domains shown)
VH: B1 VH
VL: B1 VL with S68K
B4 registered an equilibrium dissociation constant (Kd) of 3.2 nM. This Kd is about 6.3-fold lower than that of the molecule before.

B5: AC3438 (bispecific antibody, V domains shown)
VH: B1 VH
VL: B1 VL with S68N
In the case of B5, the Kd amounted to 8.3 nM. Against the preceding molecule, the Kd is about 2.6-fold higher.

B6: AC3396 (bispecific antibody, V domains shown)
VH: B1 VH with S53T
VL: B1 VL with S68L
Turning to B6, the equilibrium dissociation constant (Kd) turned out to be 4.8 nM. This Kd is about 1.7-fold lower than that of the molecule before.

B7: AC3399 (bispecific antibody, V domains shown)
VH: B1 VH with Y55R
VL: B1 VL with S68L
The molecule B7 had a Kd of 3.8 nM. This Kd and that of the molecule before are within 1.5-fold of each other.

B8: AC3397 (bispecific antibody, V domains shown)
VH: B1 VH with K54P
VL: B1 VL with S68L
In the case of B8, the Kd was 51 nM.

B9: AC3369 (bispecific antibody, V domains shown)
VH: B1 VH with V48A
VL: B1 VL with S68L
On to B9, for which the Kd came out at 8.3 nM.

B10: AC3398 (bispecific antibody, V domains shown)
VH: B1 VH with Y55A
VL: B1 VL with S68L
In turn, B10 came in with a Kd of 11.5 nM.

B11: AC3367 (bispecific antibody, V domains shown)
VH: B1 VH with W47D
VL: B1 VL with S68L
As for B11, the dissociation constant (Kd) worked out at 40.2 nM.

B12: AC3377 (bispecific antibody, V domains shown)
VH: B1 VH with A49G
VL: B1 VL with S68L
Turning to B12, the Kd stood at 4.5 nM.

B13: AC3371 (bispecific antibody, V domains shown)
VH: B1 VH with V48G
VL: B1 VL with S68L
As for B13, the Kd was 71.5 nM.

B14: AC3439 (bispecific antibody, V domains shown)
VH: B1 VH
VL: B1 VL with S68T
With B14, the Kd was 8.9 nM.

B15: AC3368 (bispecific antibody, V domains shown)
VH: B1 VH with W47E
VL: B1 VL with S68L
As to B15, the dissociation constant Kd came out at 18.1 nM.

B16: AC3401 (bispecific antibody, V domains shown)
VH: B1 VH with Y55K
VL: B1 VL with S68L
In turn, B16 registered a dissociation constant Kd of 5.1 nM.

B17: AC3383 (bispecific antibody, V domains shown)
VH: B1 VH with I51A
VL: B1 VL with S68L
B17: the equilibrium dissociation constant (Kd) was 1180 nM. This Kd is about 230-fold higher than that of the molecule before.

B18: AC3385 (bispecific antibody, V domains shown)
VH: B1 VH with I51T
VL: B1 VL with S68L
For B18, the Kd is 425 nM.

B19: AC3374 (bispecific antibody, V domains shown)
VH: B1 VH with V48W
VL: B1 VL with S68L
With B19, the Kd was found to be 34300 nM.

B20: AC3372 (bispecific antibody, V domains shown)
VH: B1 VH with V48S
VL: B1 VL with S68L
The molecule B20 displayed a Kd of 11.2 nM.

B21: AC3373 (bispecific antibody, V domains shown)
VH: B1 VH with V48T
VL: B1 VL with S68L
Molecule B21 gave a dissociation constant Kd of 5.7 nM.

B22: AC3370 (bispecific antibody, V domains shown)
VH: B1 VH with V48E
VL: B1 VL with S68L
The molecule B22 returned a dissociation constant Kd of 165 nM. Compared with the last molecule, the Kd is about 29-fold higher.
